Color scale (0-5); sequential coloring of hair with streptavidin-coated iron oxide beads (color scale 0-5) data for 1 molecule are collected here from patent US20100247590A1, “Peptide-Based Systems For Delivery Of Cosmetic Agents” (JOHNSON & JOHNSON, priority 2009, published 2010).

The target of this test is streptavidin (coated on iron oxide particles or on fluorescently-labeled polystyrene particles), P22629. Nature of the test: cell-based or functional assay.
Sequence of streptavidin (coated on iron oxide particles or on fluorescently-labeled polystyrene particles), P22629 (P22629 37-163 limits assumed): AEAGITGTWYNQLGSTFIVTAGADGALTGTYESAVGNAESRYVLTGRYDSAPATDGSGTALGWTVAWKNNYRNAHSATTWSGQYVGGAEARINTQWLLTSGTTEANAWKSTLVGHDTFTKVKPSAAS

B1: peptide HC260 (peptide)
peptide: MASGSDPSAQSQLPDKHSGLHERAPQRYGPEPEPEPEPIPEPPKEAPVVIEKPKPKPKPKPKPPAHDHKNQKETHQRHAAGSGGGGSPMLSENWLTNHPQNGGAGGAGMLSENWLTNHPQNGK
modifications: not checked
Regarding B1, the Color scale (0-5); sequential coloring of hair with streptavidin-coated iron oxide beads (color scale 0-5) amounted to 2.
